# Laboratory results published in patent publication US20110044994A1 (THERACLONE SCIENCES, published 2011).
# Residue numbers refer to the chain shown, from its start.
# B1: 1496_C09 (PG9) (antibody, V domains shown)
# VH: QRLVESGGGVVQPGSSLRLSCAASGFDFSRQGMHWVRQAPGQGLEWVAFIKYDGSEKYHADSVWGRLSISRDNSKDTLYLQMNSLRVEDTATYFCVREAGGPDYRNGYNYYDFYDGYYNYHYMDVWGKGTTVTVSS
# VL: QSALTQPASVSGSPGQSITISCNGTSNDVGGYESVSWYQQHPGKAPKVVIYDVSKRPSGVSNRFSGSKSGNTASLTISGLQAEDEGDYYCKSLTSTRRRVFGTGTKLTVLG
# B2: 1495_C14 (PGC14) (antibody, human IgG1, lambda, V domains shown)
# VH: DGHLVQSGVEVKKTGATVKISCKVSGYSFIDYYLHWVQRAPGKGLEWVGLIDPENGEARYAEKFQGRVTIIADTSIDTGYMEMRSLKSEDTAVYFCAAGAVGADSGSWFDPWGQGTLVTVSS
# VL: SYELTQPPSVSVSPGQTASITCSGSKLGDKYVSWYQLRPGQSPILVMYENDRRPSGIPERFSGSNSGDTATLTISGTQALDEADFYCQAWETTTTTFVFFGGGTQLTVLG
# B3: 1443_C16 (PG16) (antibody, V domains shown)
# VH: QEQLVESGGGVVQPGGSLRLSCLASGFTFHKYGMHWVRQAPGKGLEWVALISDDGMRKYHSDSMWGRVTISRDNSKNTLYLQFSSLKVEDTAMFFCAREAGGPIWHDDVKYYDFNDGYYNYHYMDVWGKGTTVTVSS
# VL: QSALTQPASVSGSPGQTITISCNGTSSDVGGFDSVSWYQQSPGKAPKVMVFDVSHRPSGISNRFSGSKSGNTASLTISGLHIEDEGDYFCSSLTDRSHRIFGGGTKVTVLG
# B4: 1456_P20 (PG20) (antibody, human IgG1, kappa, V domains shown)
# VH: QVRLVQSGPEVKKPGSSVTVSCQASGGTFSSYAFTWVRQAPGQGLEWLGMVTPIFGEAKYSQRFEGRVTITADESTSTTSIELRGLTSEDTAIYYCARDRRAVPIATDNWLDPWGQGTLVTVSS
# VL: DIQLTQSPSSLSASVGDRVSITCRASQTINNYLNWYQQTPGKAPKLLIYGASNLQNGVPSRFSGSGSGTDFTLTISSLQPEDFATYYCQQSFSTPRTFGQGTRLDIKR
# B5: 1460_G14 (PGG14) (antibody, human IgG1, kappa, V domains shown)
# VH: QVLLVQSGTEVKKPGSSVKVSCQASGGAFSSYAFSWVRQAPGQGLEWMGMITPVFGETKYAPRFQGRLTLTAEESLSTTYMELRSLTSDDTAFYYCTRDRRVVPMATDNWLDPWGQGTLVTVSS
# VL: B4 VL with S20T, I21V, N30H, N31T, T39I, N53T, N56S, S76N, F92Y
# Key:
# 92RW020 pseudovirus Env = 92RW020 pseudovirus Env (HIV-1); assay: cell-based or functional assay
# ADA pseudovirus Env = ADA pseudovirus Env (HIV-1); assay: cell-based or functional assay
# recombinant gp41HxB2 [1] = biological target: T1, recombinant gp41HxB2 (HIV-1, UniProt P04578 541-682); assay: ELISA screen of B cell culture supernatants
# T1 construct: domain: gp41
# recombinant gp41HxB2 [2] = biological target: T1, recombinant gp41HxB2; assay: ELISA
# [3] = biological target: T2, recombinant, monomeric gp120JR-CSF (HIV-1, UniProt P20871 32-503); assay: mAb specificity by ELISA
# T2 construct: domain: gp120; also called JR-CSF gp120; JR-CSFgp120
# [4] = biological target: JR-CSF pseudovirus (HIV-1 Env on the virions) (HIV-1, UniProt P20871 32-848); assay: cell-based or functional assay
# [5] = biological target: JR-FL (E168K) pseudovirus Env (HIV-1); assay: cell-based or functional assay
# [6] = biological target: T2, recombinant, monomeric gp120JR-CSF; assay: ELISA screen of B cell culture supernatants
Binder,"IC50 (ug/ml), pseudovirus neutralization, TZM-bl assay (92RW020 pseudovirus Env) [µg/mL]","IC50 (ug/ml), pseudovirus neutralization, TZM-bl assay (ADA pseudovirus Env) [µg/mL]",binding result (recombinant gp41HxB2 [1]),binding result (recombinant gp41HxB2 [2]),binding result [3],"IC50 (ug/ml), pseudovirus neutralization, TZM-bl assay [4] [µg/mL]","IC50 (ug/ml), pseudovirus neutralization, TZM-bl assay [5] [µg/mL]",binding result [6]
B1,0.1,0.2,no binding,–,–,–,–,–
B2,–,–,–,no binding,binds,–,–,–
B3,0.09,0.004,no binding,–,–,0.001,0.006,no binding
B4,–,–,–,no binding,binds,–,–,–
B5,–,–,–,no binding,binds,–,–,–
